In paper PMC6940538 (Angewandte Chemie (International ed. in English), 2019):

Tests used:
[1] = molecular target: the molecule itself; experiment: crystal structure
[2] = molecular target: the molecule itself; experiment: SEC
[3] = molecular target: the molecule itself; experiment: AUC

B1: MtmW (ΔN3) (enzyme, Streptomyces argillaceus, UniProt Q194Q1 4-326, looked up)
chain: VEFRSLGRSGLSVSEIVYGNLLYPQDDTPDEVVLSSIRAALDAGVTTFDTADVYGMFRSESLLGRALAGTPREELVLCTKVGMPTGFGPNGRGLSRKHVMESVDGSLRRLRVDHIDVYTAHRYDPATPLEELMWTFSDLVRAGKILYVGMSEWPVERIAEAAGIGARLGVPVICHMPRYSMLWRAPEAEVIPACRDLGIGQICYFTLEQGVLTGKYAPGAPPPAGSRATAPKGGRAPLMRRWLDDDKVLGRVERLRPLAEEAGLTTAHLAWVLQNPAVSGAVIGSFNAEQVLANAESAGVRLETDLLVRIDEVLGDSVVHDEE
stoichiometry N [1]: 8

B2: MtmW (enzyme, Streptomyces argillaceus, UniProt Q194Q1 1-326, looked up)
chain: MVAVEFRSLGRSGLSVSEIVYGNLLYPQDDTPDEVVLSSIRAALDAGVTTFDTADVYGMFRSESLLGRALAGTPREELVLCTKVGMPTGFGPNGRGLSRKHVMESVDGSLRRLRVDHIDVYTAHRYDPATPLEELMWTFSDLVRAGKILYVGMSEWPVERIAEAAGIGARLGVPVICHMPRYSMLWRAPEAEVIPACRDLGIGQICYFTLEQGVLTGKYAPGAPPPAGSRATAPKGGRAPLMRRWLDDDKVLGRVERLRPLAEEAGLTTAHLAWVLQNPAVSGAVIGSFNAEQVLANAESAGVRLETDLLVRIDEVLGDSVVHDEE
stoichiometry N [2]: ~8
stoichiometry N [3]: 8
